According to the RNAGym collection of RNA variant scans (doi:10.7554/elife.80360):

B1: Hairpin Ribozyme (parent)
chain: GUCCUCUUUCACGUGCGCGUGAAAGAGAGAAGUGAACCAGAGAAACACACGUUGUGGUAUAUUACCUGGUA

Variants of: B1
Test: self-cleavage, relative activity (ratio to wild type); higher = more cleavage; co-transcriptional

Variant | self-cleavage
G29A U70A | 0.0755
G29A U70C | 0.171
A28G A64G | 0.425
A28U U53G | 0.432
G29C C50A | 0.167
A28G A59U | 0.32
G29C C46G | 0.0799
A28G U58A | 0.653
G29C A35C | 0.104
G29C A35U | 0.0473
A28G G68A | 0.349
G29A G40C | 0.0971
G29U C46G | 0.182
A28U G57U | 0.235
A28C U63A | 0.0573
A28U C65A | 0.497
A28G U33A | 0.157
G29U U70A | 0.21
G27U A30C | 0.1
A30C G54U | 0.0809
A28U A71U | 0.371

Variant | self-cleavage
A28U A71C | 1.1
G27U U53G | 0.23
G29U G57C | 0.108
G29U G57U | 0.149
G29U A64U | 0.14
A28C G32A | 0.172
G29U C38A | 0.179
G29U C38G | 0.186
G27U A45C | 0.0886
G27U A45G | 0.131
G27U A45U | 0.0868
G29C G40C | 0.133
G29C G40A | 0.115
G29U U67A | 0.0852
G29U U67G | 0.132
A28C C38A | 0.205
G27U G68A | 0.128
A28U G40A | 0.175
A28G G54A | 0.646
G29A U33G | 0.167
A28U A61U | 0.12

Variant | self-cleavage
A28U A61C | 0.18
A28C A47U | 0.0267
A28U A43G | 0.0987
G27U U70C | 0.105
A28U U63G | 0.105
G29C G57A | 0.215
G29C G57U | 0.142
A28C A45C | 0.0427
G29U A47U | 0.169
G29U A47C | 0.0936
G29A U55C | 0.163
A28G A41G | 0.908
A28G A41C | 0.961
G27C G42A | 0.148
G27C G42C | 0.165
G27C U55C | 0.186
A28U A49C | 0.18
A28C A36G | 0.552
A28C A36C | 0.32
A28C A36U | 0.302
A28U A35G | 0.599

Variant | self-cleavage
A28U A35C | 0.704
A28U C37G | 0.193
A28U C37U | 0.376
G29C G68A | 0.0962
G29C U58G | 0.077
G29C U58A | 0.213
A28G A61G | 0.279
G27U A28G | 0.119
G29A A30U | 0.0939
G29A A30C | 0.115
G29U G42A | 0.0859
G29U G42C | 0.115
G29C G34A | 0.158
G29C G34U | 0.0954
G29A G32C | 0.106
G29U G54U | 0.207
A28G G29C | 0.12
A28C G54U | 0.262
G27U U67A | 0.177
G29A A45G | 0.105
G27C U67C | 0.103
